{"source": "patent US20250066499A1", "about": "(SUNSHINE GUOJIAN PHARMACEUTICAL SHANGHAI, published 2025)", "key": {"[1]": {"molecular_target": "T1, CD73-ND-N187A (human, UniProt P21589 27-317)", "T1 construct": "Alanine mutant of CD73-ND", "T1 sequence": "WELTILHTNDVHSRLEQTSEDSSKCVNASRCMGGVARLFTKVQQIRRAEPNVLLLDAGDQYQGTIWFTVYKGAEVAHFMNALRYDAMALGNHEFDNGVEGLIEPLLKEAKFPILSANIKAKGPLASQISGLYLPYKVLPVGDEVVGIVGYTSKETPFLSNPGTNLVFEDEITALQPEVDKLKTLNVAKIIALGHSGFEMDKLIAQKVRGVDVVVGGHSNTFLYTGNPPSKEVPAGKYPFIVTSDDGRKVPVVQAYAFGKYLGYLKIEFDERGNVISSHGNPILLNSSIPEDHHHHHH", "experiment": "ELISA; decline multiple of EC50 against CD73-ND", "method": "(§1) The ELISA plates were coated with SA protein diluted to 1.5 μg/mL in coating buffer (50 mM carbonate coating buffer, pH 9.6) and incubated overnight at 4° C. The supernatant was discarded, and the plates were washed three times with PBST. Then, 5% skimmed milk powder prepared with PBS was added for blocking and the plates were incubated for 2 h at 37° C. After washing the plates once with PBST, CD73-biotin protein (prepared by biotinylating CD73-His protein according to the EZ-Link NHS-Biotin Reagent instructions) was diluted to 0.5 μg/mL and added at 100 μL/well for incubation at room temperature for 1 h. The plates were washed three times with PBST, and the prepared murine-derived monoclonal antibodies against human CD73 were serially diluted with 1% BSA buffer prepared with PBST and added to the ELISA plates at 100 μl/well. The plates were incubated at 37° C. for 1 h. After washing the plates three times with PBST, HRP-labeled goat anti-mouse IgG secondary antibody was added and the plates were incubated for 30 min at 37° C. After washing the plates three times with PBST, the residual droplets were patted dry on absorbent paper as much as possible. Then, 100 μl of TMB color developing solution was added to each well, and the plates were incubated in the dark at room temperature for 5 min for color development. Subsequently, 50 μl of 2M H₂SO₄ stop solution was added to each well to terminate the substrate reaction. The OD values were read at 450 nm using a multimode microplate reader to analyze the binding ability of the tested antibodies to the target antigen human CD73-His.\n(§2) Referring to the experimental method in Example 3, the affinity of 48A11-HuV33 for various mutant proteins of CD73-ND was determined. The SA protein was diluted to 1 μg/mL for coating the ELISA plates, and the biotinylated CD73 protein (CD73-biotin) was used at a concentration of 0.1 μg/mL."}, "[2]": {"molecular_target": "T2, CD73-ND-his (human, UniProt P21589 27-317)", "T2 construct": "Biotinylated and captured on streptavidin in the ELISA", "T2 sequence": "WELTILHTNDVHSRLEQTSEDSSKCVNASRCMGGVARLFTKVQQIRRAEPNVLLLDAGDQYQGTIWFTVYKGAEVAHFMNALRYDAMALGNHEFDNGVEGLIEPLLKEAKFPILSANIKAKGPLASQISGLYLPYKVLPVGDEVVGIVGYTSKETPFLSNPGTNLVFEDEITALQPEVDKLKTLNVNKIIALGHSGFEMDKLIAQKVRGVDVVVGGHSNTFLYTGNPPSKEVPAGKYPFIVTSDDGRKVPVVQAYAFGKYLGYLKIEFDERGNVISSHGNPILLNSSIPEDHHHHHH", "experiment": "ELISA; decline multiple of EC50 against CD73-ND", "method": "as §1, §2"}, "[3]": {"molecular_target": "T3, CD73-ND-L138A (human, UniProt P21589 27-317)", "T3 construct": "Alanine mutant of CD73-ND", "T3 sequence": "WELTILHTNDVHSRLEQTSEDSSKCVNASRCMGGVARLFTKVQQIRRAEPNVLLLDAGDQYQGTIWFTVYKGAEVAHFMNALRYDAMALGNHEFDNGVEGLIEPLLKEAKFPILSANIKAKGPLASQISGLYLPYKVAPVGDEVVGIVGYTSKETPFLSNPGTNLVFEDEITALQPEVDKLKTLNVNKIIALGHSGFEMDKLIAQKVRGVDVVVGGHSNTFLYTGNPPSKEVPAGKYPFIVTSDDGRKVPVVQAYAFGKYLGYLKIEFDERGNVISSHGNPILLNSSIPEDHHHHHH", "experiment": "ELISA; decline multiple of Top against CD73-ND", "method": "as §1, §2"}, "[4]": {"molecular_target": "T4, CD73-ND-Y132A (human, UniProt P21589 27-317)", "T4 construct": "Alanine mutant of CD73-ND", "T4 sequence": "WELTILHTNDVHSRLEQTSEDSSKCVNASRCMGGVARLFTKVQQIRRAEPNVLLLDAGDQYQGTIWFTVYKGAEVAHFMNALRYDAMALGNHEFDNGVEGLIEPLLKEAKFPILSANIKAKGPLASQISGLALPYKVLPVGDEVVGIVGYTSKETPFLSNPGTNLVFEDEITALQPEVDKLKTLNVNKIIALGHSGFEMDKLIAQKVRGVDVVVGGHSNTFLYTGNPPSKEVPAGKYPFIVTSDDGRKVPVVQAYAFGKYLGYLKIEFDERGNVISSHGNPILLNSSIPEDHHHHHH", "experiment": "ELISA; decline multiple of Top against CD73-ND", "method": "as §1, §2"}, "[5]": {"molecular_target": "T5, CD73-ND-K136A (human, UniProt P21589 27-317)", "T5 construct": "Alanine mutant of CD73-ND", "T5 sequence": "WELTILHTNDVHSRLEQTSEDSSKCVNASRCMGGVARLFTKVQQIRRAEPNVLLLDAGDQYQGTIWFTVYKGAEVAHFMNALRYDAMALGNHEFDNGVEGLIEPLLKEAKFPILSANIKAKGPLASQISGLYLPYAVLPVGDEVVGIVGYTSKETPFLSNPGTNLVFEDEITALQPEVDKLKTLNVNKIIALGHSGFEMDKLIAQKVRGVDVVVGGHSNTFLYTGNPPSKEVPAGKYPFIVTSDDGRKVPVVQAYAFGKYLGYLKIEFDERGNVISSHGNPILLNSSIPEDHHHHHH", "experiment": "ELISA; decline multiple of Top against CD73-ND", "method": "as §1, §2"}, "[6]": {"molecular_target": "T6, CD73-ND-Y135A (human, UniProt P21589 27-317)", "T6 construct": "Alanine mutant of CD73-ND", "T6 sequence": "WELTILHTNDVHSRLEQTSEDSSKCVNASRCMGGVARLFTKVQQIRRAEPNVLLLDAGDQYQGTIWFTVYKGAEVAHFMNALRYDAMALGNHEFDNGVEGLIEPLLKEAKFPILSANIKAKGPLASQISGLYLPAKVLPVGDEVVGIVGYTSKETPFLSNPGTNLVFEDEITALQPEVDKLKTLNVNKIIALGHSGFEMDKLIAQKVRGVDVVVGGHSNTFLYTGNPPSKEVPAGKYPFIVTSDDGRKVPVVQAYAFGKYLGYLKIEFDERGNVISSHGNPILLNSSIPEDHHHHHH", "experiment": "ELISA; decline multiple of Top against CD73-ND", "method": "as §1, §2"}, "[7]": {"molecular_target": "T2, CD73-ND-his", "experiment": "ELISA; decline multiple of Top against CD73-ND", "method": "as §1, §2"}}, "data": [{"binder": "48A11-HuV33 (antibody, human IgG4, V domains shown, Humanized) VH: QVQLVQSGAEVKKPGASVKVSCKASGYTFTSYWMHWVRQAPGQGLEWIGEINPSIGRTNYNEKFKSRVTLTRDTSTSTAYMELSSLRSEDTAVYYCARRVYGTMDYWGQGTLVTVSS VL: DIQMTQSPSSLSASVGDRVTITCKASQDINSYLSWFQQKPGKSPKLLIYRANIWVDGVPSRFSGSGSGQDYTFTISSLQPEDIATYYCLQYDELYTFGQGTKVEIK", "values": [{"measurement": "Ratio(EC50)", "setting": "[1]", "result": 0.9, "unit": "fold"}, {"measurement": "Ratio(EC50)", "setting": "[2]", "result": 0.8, "unit": "fold"}, {"measurement": "Ratio(Top)", "setting": "[3]", "result": 1.1, "unit": "fold"}, {"measurement": "Ratio(Top)", "setting": "[4]", "result": 8.2, "unit": "fold"}, {"measurement": "Ratio(Top)", "setting": "[5]", "result": 1, "unit": "fold"}, {"measurement": "Ratio(Top)", "setting": "[6]", "result": 1.1, "unit": "fold"}, {"measurement": "Ratio(Top)", "setting": "[7]", "result": 1, "unit": "fold"}]}]}
